# According to PMC2938383 (Molecular Biology of the Cell, 2010):
# Target: the molecule itself
# Test: SEC
protein,measurement,value
"purified wild-type lipin1β (His6-tagged, baculovirus expressed) (enzyme, mouse, UniProt Q91ZP3 1-924, looked up) MNYVGQLAGQVFVTVKELYKGLNPATLSGCIDIIVIRQPNGSLQCSPFHVRFGKMGVLRSREKVVDIEINGESVDLHMKLGDNGEAFFVQETDNDQEIIPMYLATSPILSEGAARMESQLKRNSVDRIRCLDPTTAAQGLPPSDTPSTGSLGKKRRKRRRKAQLDNLKRDDNVNSSEDEDMFPIEMSSDEDTAPMDGSRTLPNDVPPFQDDIPKENFPSISTHPQSASYPSSDREWSPSPSSLVDCQRTPPHLAEGVLSSSCPLQSCHFHASESPSGSRPSTPKSDSELVSKSADRLTPKNNLEMLWLWGELPQAAKSSSPHKMKESSPLGSRKTPDKMNFQAIHSESSDTFSDQSPTMARGLLIHQSKAQTEMQFVNEEDLESLGAAAPPSPVAEELKAPYPNTAQSSSKTDSPSRKKDKRSRHLGADGVYLDDLTDMDPEVAALYFPKNGDPGGLPKQASDNGARSANQSPQSVGGSGIDSGVESTSDSLRDLPSIAISLCGGLSDHREITKDAFLEQAVSYQQFADNPAIIDDPNLVVKVGNKYYNWTTAAPLLLAMQAFQKPLPKATVESIMRDKMPKKGGRWWFSWRGRNATIKEESKPEQCLTGKGHNTGEQPAQLGLATRIKHESSSSDEEHAAAKPSGSSHLSLLSNVSYKKTLRLTSEQLKSLKLKNGPNDVVFSVTTQYQGTCRCEGTIYLWNWDDKVIISDIDGTITRSDTLGHILPTLGKDWTHQGIAKLYHKVSQNGYKFLYCSARAIGMADMTRGYLHWVNERGTVLPQGPLLLSPSSLFSALHREVIEKKPEKFKVQCLTDIKNLFFPNTEPFYAAFGNRPADVYSYKQVGVSLNRIFTVNPKGELVQEHAKTNISSYVRLCEVVDHVFPLLKRSHSCDFPCSDTFSNFTFWREPLPPFENQDMHSASA",stoichiometry N,~4
